test: soluble on expression in E. coli; label from the status in PepcDB or PDB records

Row | Sequence | soluble on expression in E. coli
1 | MGSDKIHHHHHHAITVEENPNMMYMLVGSYATPEEEGIKVYNFDEQNGNSQYISGIKGISNPSFLIPSADGERIYAVGEDSGKSSTANAIKFDKEQKKLTLLNSQPTDGGAPCYITLSPSEKFVLTANYIGGSITVFPLDKDGKLKSETRLISFTGNSLDKERQTQPHLHCIEFTPDHKYLLASDLGTDQIHVFPVSENVTDGVSHSLLNESEEFNIKVESGSGPRHICFHPNQKFAYLINEISGKVIAFSYDKGKLNAIQYIEADTVGAKGSGDIHISPDGKFLYASNRLKADGIAIFSINQEEGTLTKTGYQLTGIHPRNFIISRNGRYLLVACRDSNSIQVFERDSQTGLLKDTGKTIKTNKPVCLKFTF | not soluble
2 | MGSDKIHHHHHHMLKIELLESFIAVAECGNLSKAADKICRTQSTLSLQVKKLEESVGQTLLIRDNKGVTLTESGETLLNYAYKMMQLNSQAIDELKDCQNREVIRLGVPTDFIKCYLSSCLLEFIREFTSIELVIDTDVSGNLYKRLHQGEFDVIVATHWQVPTNGELLFTRRFKWVSAVEGNAHKRKTIPMGLYPENCPIRAQVFANHRLSMRPINVLLSTPSPQALCMAVENDLVIAPIAEFRITDQMQVLDPIEHGLPILPMFNESLYLNPDTQTYATLQLINLIKANVEHKGYQLD | not soluble
3 | MTLTELRYIVAVAQERHFGRAARRCFVSQPTLSIAIKKLEEELAVSLFDRSSNDIITTEAGERIVAQARKVLEEAELIRHLANEEQNELEGAFKLGLIFTVAPYLLPKLIVSLRRTAPKMPLMLEENYTHTLTESLKRGDVDAIIVAEPFQEPGIVTEPLYDEPFFVIVPKGHSFEELDAVSPRMLGEEQVLLLTEGNCMRDQVLSSCSELAAKQRIQGLTNTLQGSSINTIRHMVASGLAISVLPATALTENDHMLFSIIPFEGTPPSRRVVLAYRRNFVRPKALSAMKAAIMQSQLHGVSFICD | soluble
4 | GPGSMDDGFSRILLAWFSNNPSFGKTIPVTAGQAVLNTLYIRYVVNKSVSFEDILAYQFRWVSANDAATEVFNKFTDGKESMTSEQLGKFLRDVQRSDVTDRQIVEKFKYCFGGGIHKYNFISYNGSVLTNNAIDPARTSDVWQDMTQSFTHYMVSCARIEAEEDLKRAAADGTRALVLNINKASNGKLMVGSCELQTILEGVKKNGFATNTYPIVLCLSPGTPMPTPVQDEVAKMINDILESAVAEGLMFEGAMINDPKFSPGALRNKVLVMSHQSRLKPFIGFLVADMNKDGLGVRVTDVMEGTPASKGGVLKDDWLTHINGIPIQNKQHLRETLARLKAGDEFTVRRENLHDVKVVVGGAIDPQDTTASASLSSITFFKYSDSNDPKPWDTERIPASSLATTKLTRKDLLTHFAFCTVNSAEASTELPDAEGKAASLGIQFVDVDNSERCLPWTRGRFSDNGRCGYILKTDIDSAKSPELSLSVIGGPRLLNCSPLTSMNVTIHGAGTARVNGSQVSFTDCNQATIAVVQMTFEANGAERTFTSAFCPGLLRPGYRALPSVPFGEERASKKQIHGIYCFIK | not soluble
5 | TGKVHWSDELFNIFGRDPQKSAANYEELLNYIHPDDRDFVDGIIRNSFTGKRYGIDYRIIRDNGEERTVHAEKELIFDRN | not soluble
6 | DSDCHFAEQRDFSSQWFRVDDGGEIPDEQELHWHLEYLQQNPNAARDLLHALLPDKDASQGDWRCSYRLLQSADLMPLVFDYRWLMNGQFAFYLVDSASQENGGVATTLLVRALFDDYLRNLKSFSADLKDMVNIMEKGIECSDCAGAVK | not soluble
7 | MGSDKIHHHHHHMTLNNLEIDTLVVGAGQAGVAMSEHLSKLGVPHLVLERNRIAQAWRTGRWDSLVANGPAWHDRFPGLEFNLDADAFAGKDQVADYFEQYVRKYNLPVRTGIEVKRVVRNSDRPGFTIDTSEGVIRANRVVAATGPFQKPVIPAIAPKDSNLHQIHSAAYFNPEQLPEGAVLVVGAGSSGVQIAEELMRAGRQVYLSVGAHDRPPRAYRNRDFCWWLGVLGEWDAEIAKPGREHVTIAVSGARGGHTVDFRALAHQGMTLVGLTQSFENGVARFQDNLVENINRGDDNYLALLDAADAYIERNGLDLPEEPEARQRLADPECMRNPLQQLDLAKAGVSSIIWATGYGVDFSWLQVDTFDANGKPQHQRGVAREPGVYFLGLPWLSRRGSSFIWGVWHDAKHVAGHIATQRTYTAYRDREQRAADEQQTAKISNVSTLGAH | not soluble
8 | MASRKTVNRRQRPQRATSNVFAMFDQAQIQEFKEAFNMIDQNRDGFIDQEDLKDMFASLGKEVTEQFIDSMINEAPGAQPINFTMFLTLFGEKLTGTDPEEVIRNAFQCFDEDNSGKLNEEHLRELLTTMGERYSEEQVDELFRDAPIKGGQFDYVEFTRMLKHGTKDKDEA | not soluble
9 | MGHHHHHHSHGFYTIKEAERGVVTRFGKFSHLVEPGLNWKPTFIDEVKPVNVEAVRELAASGVMLTSDENVVRVEMNVQYRVTNPEKYLYSVTSPDDSLRQATDSALRGVIGKYTMDRILTEGRTVIRSDTQRELEETIRPYDMGITLLDVNFQAARPPEEVKAAFDDAIAARENEQQYIREAEA | soluble
10 | MNRKIERMIIELEKECKAQNVELLLCATNFETGQGSTAFCGSVIGLAILLQKLVGDLKEQLSISESCDCPECVAEKAEDAANEKSMDELLTAFLRGELQ | not soluble
11 | MVSQRLHHRCDLVFFVVDSKHDQLNLDRFEFWQLTSQLLVLDVCLFDAFALEHHHHHH | not soluble
12 | MGSDKIHHHHHHMIAKIIMGGGKMIKRVKTGIPGMDEILHGGIPERNIVLISGGPGTGKTIFSQQFIWNGLQMGEPGIYVALEEHPVQVKKNMEVFGWNVDPFEKEGKFAIVDAFTGGIGEYAEKEKYVVRDIDDVRELAEVLKRAVRETQAKRVVIDSVTTLYITKPAMARSIIFQLKRILSGLGCTSLFVSQVSVTEKGFGGPGVEHGVDGIIRLDLDEIDGELKRSLIVWKMRGTSHSMRRHPFEITDKGIVIYPSEGGEGR | not soluble
13 | MGSDKIHHHHHHMKEISCGRRTRVSFGKSREPLPIPDLVEIQKSSYRRFLEEGLLEVLKKFSPIYSQATRSDLRKSDRGFALEFVSTRTGEPAIDPLECKAKGLTYSVPIYATARLTDMKSGEMKEEEVFLGYIPYMTDRGTFIINGAERVVVNQIVVSPGLYFSSEYIDREEYGGYFLPSRGAWLEVILDPYDGVLYAGLDGKKVNLFLFLKTIGYEKDEDILSLYPTYLDADDEDSLLLHVGSILLEDIYDGGRKIAEKWDILTKDLAERILMIDDINQIKIVHPIAQNTFEKMLEVVSSSSEEGEEEEEKTKIYGLNEVTVVDAYLEIFRRLRPEELPRINAAKRYLHDLFFNPERYDLSEVGRYKVNERLRNAYIRYLIEVEGEDPEEARKKVYNETSLVLKPLDIVLASRILFDYFERRYVNDFEIDSYELKNLIRIFKEEYLEKRKTAPYDLRKLVSVFRRNYGVTSDLGVFAAIRYVSNINKELPSIPFDTKDHLGNKRVRTVGELVQREFERLFARAQKAIQERLTLINSLSKVSIQSLINIKSIISTVNQFFAMNQLSQFMDQVNPLSELTHKRRVSAVGPGGLRRESKVFEARNVHYSQYGRLCPIETPEGANIGFITSLAIYAKIDEYGFLMTPYRKVVNGKVTDEVVYLRANEEEEYKIIPATTPVDEEGNIIPERVVARMGEDIRLVPKEEVDFMDVSTKQPFSVSASLIPFLEHDDASRALMGSNMQRQAVPLLKTEAPLVGTGMEWEAAKNSGYVILAEHDGIVKEVDAARVVVHRTDENGNLMYDDKGNPVVDEYRLLKFVRSNQDTMINQKPIVNEGDFVKKGDPIADGPATDMGELALGRNILVAFMPWEGYNYEDAILVSQELLEEDVFTSIHIEVYETQARETRLGPEEITADIPNVSKELLKNLDENGIIRVGAYVVSDYGVGSQAILVGKVTPKGEGDTTPEEKIIRSVFGERGRDVKDTSLRLPHGVEGRVIRVDVYDQNDIAELGAGVLKLVRVYVASRKTLDIGDKLAGRHGNKGVVSNILPKEDMPFLPDGTPVQMVLNPLGIPSRMNVGQILETHLGWLAKLTGKWFATPVFEGAKEDEILRPLYEERKKRGLHLGDDENNPNGKVVLRDGRTGEPFDNPVVVGYMYMLKLIHIAKEKIHARSTGPYSLIHQQPLGGKSHFGGQRLGEMEVWALEAYGAAHTLAEMLTIKSDDIKGRNEAYKAILKNMNIPEPGVPESFRVLIKELRGLALDVRLYDENGNEIDIDKY | not soluble
14 | MYIECEGILKRYFKDVPEIIKRACKFAREKLGEGSHGFSHTLRVLAIALHIGSKENADLEILALAALLHDIARPLEDKGVIRDHAIEGAKIAKEFLSNYEKVEEVAHAIASHRFSNDVEPRTLEAKILSDADKIDALGAIGIARVFIYSCEKERSIEDSIKHFEEKILKLKDLMYTKTGKEIAEKRHKVVKWYVETLKSELREFLYLEHHHHHH | soluble

— the DeepSol protein solubility set
